Results as given in patent US20040126379A1.

Target: human CD44v6 on antigen-positive FaDu cells (human) (UniProt P16070)
Assay: flow cytometry (FACS) on antigen-positive FaDu cells, on ice 1 h, FITC-labeled anti-human IgG detection

Molecule | Kd
BIWI 1 (from UniProt P0DOX5 2-449) | 1.8 nM
BIWA 4 (antibody, human IgG1, kappa, V domains shown) VH: EVQLVESGGGLVKPGGSLRLSCAASGFTFSSYDMSWVRQAPGKGLEWVSTISSGGSYTYYLDSIKGRFTISRDNAKNSLYLQMNSLRAEDTAVYYCARQGLDYWGRGTLVTVSS VL: EIVLTQSPATLSLSPGERATLSCSASSSINYIYWYQQKPGQAPRLLIYLTSNLASGVPARFSGSGSGTDFTLTISSLEPEDFAVYYCLQWSSNPLTFGGGTKVEIKR | 1 nM
